Test results as given in US20140112930A1 (published 2014).

Legend:
Human Ang-2FD-hFc = molecular target: T1, Human Ang-2FD-hFc (human); experiment: blocking ELISA, 16.67 nM antibody, Ang-2FD-hFc to coated hTie-2-mFc
T1 construct: also called dimeric human Ang-2FD; human Ang-2FD protein conjugated to human IgG

Mouse Ang-2FD-hFc = molecular target: T2, Mouse Ang-2FD-hFc (mouse (Mus musculus)); experiment: as above
T2 construct: also called dimeric mouse Ang-2FD

Biotin-hBA2 = molecular target: T3, Biotin-hBA2 (human, biotinylated (sites not given)); experiment: blocking ELISA, biotin-hBA2 to hTie-2; NB = no blocking observed at 5 nM concentration
T3 construct: hBA2 consists of two dimers; also called biotinylated hBA2; human bow-Ang2
T3 sequence (chain, as listed by the source limits assumed): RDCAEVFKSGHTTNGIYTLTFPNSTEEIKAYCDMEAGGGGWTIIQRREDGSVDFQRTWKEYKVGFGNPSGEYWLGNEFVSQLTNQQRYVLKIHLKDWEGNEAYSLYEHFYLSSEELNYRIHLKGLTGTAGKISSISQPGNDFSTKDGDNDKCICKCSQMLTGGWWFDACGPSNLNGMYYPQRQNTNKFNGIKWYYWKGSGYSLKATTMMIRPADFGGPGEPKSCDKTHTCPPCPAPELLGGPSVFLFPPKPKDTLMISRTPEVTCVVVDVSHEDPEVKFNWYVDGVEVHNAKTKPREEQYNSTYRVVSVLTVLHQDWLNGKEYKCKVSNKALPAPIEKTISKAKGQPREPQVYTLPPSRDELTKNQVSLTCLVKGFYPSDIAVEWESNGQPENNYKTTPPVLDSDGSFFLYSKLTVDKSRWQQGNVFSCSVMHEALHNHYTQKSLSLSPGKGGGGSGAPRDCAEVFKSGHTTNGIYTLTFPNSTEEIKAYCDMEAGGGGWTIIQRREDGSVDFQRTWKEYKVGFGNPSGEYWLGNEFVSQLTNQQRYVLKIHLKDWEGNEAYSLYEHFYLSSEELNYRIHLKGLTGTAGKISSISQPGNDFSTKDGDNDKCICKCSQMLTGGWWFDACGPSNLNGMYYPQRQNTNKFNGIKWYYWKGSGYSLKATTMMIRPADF
Procedure: The plate was then blocked with PBS (Irvine Scientific, Santa Ana, Calif.) containing 0.5% BSA (Sigma-Aldrich Corp., St. Louis, Mo.) for one hour at room temperature. […] Human, mouse or monkey Ang-2FD protein conjugated to human IgG (Ang-2FD-hFc) were added to final concentrations of 2 nM, 8 nM, or 2 nM respectively and incubated for one hour at room temperature. The antibody/Ang-2FD-Fc mixture was then added to the plate containing hTie-2-mFc and incubated for one hour at room temperature. Detection of Ang-2FD-hFc bound to hTie-2-mFc protein was determined with Horse-Radish Peroxidase (HRP) conjugated to a-human IgG antibody (Jackson Immuno Research Lab, West Grove, Pa.) and developed by standard colorimetric response using tetramethylbenzidine (TMB) substrate (BD Biosciences, San Jose, Calif.). Absorbance was read at OD₄₅₀ for 0.1 sec.
For this experiment, human Tie-2 conjugated to a histidine tag (hTie-2-His; SEQ ID NO:526) was used in a similar fashion to the hTie-2-mFc described above. Antibody concentrations from 5 nM were serially diluted three-fold. […] An average IC₅₀ value for each antibody was calculated based on two separate experiments.

[1] = molecular target: T4, human bow-Ang-2 tetrameric construct (hBA2) (human); experiment: SPR, captured Ab
T4 construct: also called human BA2; hBA2-hIgG1

Monomeric hAng-2FD [2] = molecular target: T5, Monomeric hAng-2FD (human, UniProt O15123 282-496); experiment: SPR, captured Ab
T5 construct: also called fibrinogen-like domain of human Ang2; Human Ang-2FD
T5 sequence: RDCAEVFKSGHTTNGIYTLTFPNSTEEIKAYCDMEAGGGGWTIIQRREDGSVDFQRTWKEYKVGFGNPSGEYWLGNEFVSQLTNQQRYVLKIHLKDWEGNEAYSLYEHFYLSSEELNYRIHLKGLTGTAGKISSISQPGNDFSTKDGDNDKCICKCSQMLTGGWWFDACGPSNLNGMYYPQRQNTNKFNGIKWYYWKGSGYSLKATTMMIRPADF

[3] = molecular target: T6, wild-type human Ang-2 (hAng-2-WT) (human, UniProt O15123 19-496); experiment: SPR, captured Ab
T6 construct: called full-length wild-type; also called Full-length wild-type human Ang-2
T6 sequence: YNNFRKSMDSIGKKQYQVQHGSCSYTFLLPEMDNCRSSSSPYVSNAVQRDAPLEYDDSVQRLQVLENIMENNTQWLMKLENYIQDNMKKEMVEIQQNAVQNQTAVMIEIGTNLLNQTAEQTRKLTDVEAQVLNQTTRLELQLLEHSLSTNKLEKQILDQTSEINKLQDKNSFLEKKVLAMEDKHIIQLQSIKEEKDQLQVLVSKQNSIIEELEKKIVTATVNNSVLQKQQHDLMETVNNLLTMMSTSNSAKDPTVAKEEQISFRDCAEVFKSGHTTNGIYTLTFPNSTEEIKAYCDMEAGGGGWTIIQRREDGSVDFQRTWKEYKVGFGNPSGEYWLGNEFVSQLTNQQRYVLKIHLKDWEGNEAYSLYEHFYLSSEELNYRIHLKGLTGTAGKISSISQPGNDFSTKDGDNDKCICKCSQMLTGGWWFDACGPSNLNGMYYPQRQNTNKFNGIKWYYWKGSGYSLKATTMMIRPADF

[4] = molecular target: T7, Dimeric Human Ang-2FD conjugated to human IgG1 (human); experiment: SPR, captured Ab, RT
T7 construct: also called Human Ang-2FD-hFc; hAng-2FD-hFc
T7 sequence (chain, as listed by the source limits assumed): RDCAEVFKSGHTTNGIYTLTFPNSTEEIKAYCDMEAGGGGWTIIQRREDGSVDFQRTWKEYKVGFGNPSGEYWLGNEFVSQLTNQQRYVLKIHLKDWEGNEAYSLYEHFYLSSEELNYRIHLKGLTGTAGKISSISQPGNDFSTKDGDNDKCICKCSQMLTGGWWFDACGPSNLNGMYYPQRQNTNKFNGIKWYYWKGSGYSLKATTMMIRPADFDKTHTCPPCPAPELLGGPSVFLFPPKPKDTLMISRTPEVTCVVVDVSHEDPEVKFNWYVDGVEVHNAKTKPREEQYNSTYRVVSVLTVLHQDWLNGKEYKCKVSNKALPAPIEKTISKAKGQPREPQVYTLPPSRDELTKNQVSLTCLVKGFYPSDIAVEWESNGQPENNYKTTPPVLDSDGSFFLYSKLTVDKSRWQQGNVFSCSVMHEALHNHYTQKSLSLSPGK
In short: (§1)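 Antibody captured on amine-coupled goat anti-mouse IgG, anti-human κ or anti-human IgG polyclonal surfaces on a CM5 chip; antigen binding and dissociation followed in real time at room temperature. KD and complex dissociation half-life derived by kinetic analysis.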

[5] = molecular target: T8, Dimeric Mouse Ang-2FD conjugated to human IgG1 (mouse (Mus musculus); human); experiment: SPR, captured Ab, RT
T8 construct: also called Mouse Ang-2FD-hFc
T8 sequence (chain, as listed by the source limits assumed): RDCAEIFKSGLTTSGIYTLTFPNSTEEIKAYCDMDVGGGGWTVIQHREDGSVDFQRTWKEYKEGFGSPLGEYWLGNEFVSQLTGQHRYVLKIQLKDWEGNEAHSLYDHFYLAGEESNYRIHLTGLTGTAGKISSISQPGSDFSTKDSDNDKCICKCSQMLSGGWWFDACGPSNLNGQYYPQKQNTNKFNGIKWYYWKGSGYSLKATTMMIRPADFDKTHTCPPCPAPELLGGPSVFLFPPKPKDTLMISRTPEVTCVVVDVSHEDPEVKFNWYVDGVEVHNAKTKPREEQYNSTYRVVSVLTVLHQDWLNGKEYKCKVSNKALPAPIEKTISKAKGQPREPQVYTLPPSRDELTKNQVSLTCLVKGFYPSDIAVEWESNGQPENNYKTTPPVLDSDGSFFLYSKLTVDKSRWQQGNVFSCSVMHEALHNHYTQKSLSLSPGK
In short: as §1

[6] = molecular target: T9, Dimeric Monkey Ang-2FD conjugated to human IgG1 (monkey (Macca fascicularis); human); experiment: SPR, captured Ab, RT
T9 construct: also called Monkey Ang-2FD-hFc
T9 sequence (chain, as listed by the source limits assumed): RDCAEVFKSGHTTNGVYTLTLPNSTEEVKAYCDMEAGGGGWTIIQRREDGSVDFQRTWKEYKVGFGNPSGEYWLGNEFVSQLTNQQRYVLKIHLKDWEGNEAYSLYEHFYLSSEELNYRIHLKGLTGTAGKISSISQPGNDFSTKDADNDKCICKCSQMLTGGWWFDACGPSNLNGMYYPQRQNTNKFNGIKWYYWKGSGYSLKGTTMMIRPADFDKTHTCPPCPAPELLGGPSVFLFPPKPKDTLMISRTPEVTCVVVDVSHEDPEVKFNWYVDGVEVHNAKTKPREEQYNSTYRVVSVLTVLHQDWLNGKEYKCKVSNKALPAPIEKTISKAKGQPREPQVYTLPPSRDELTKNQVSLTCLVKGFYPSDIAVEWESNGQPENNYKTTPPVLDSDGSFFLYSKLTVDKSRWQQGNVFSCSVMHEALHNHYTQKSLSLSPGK
In short: as §1

[7] = molecular target: T8, Dimeric Mouse Ang-2FD conjugated to …; experiment: SPR, captured Ab, 25°C
Procedure: (§2) Each selected antibody or control construct was captured at a flow rate of 40 μL/min for 1 minute on a goat anti-human kappa polyclonal antibody surface created through direct chemical coupling to a BIACORE™ chip to form a captured antibody surface.

[8] = molecular target: T9, Dimeric Monkey Ang-2FD conjugated to …; experiment: SPR, captured Ab, 25°C
Procedure: as §2

[9] = molecular target: T10, Dimeric Human Ang-2FD-mFc (human, UniProt O15123 282-496); experiment: SPR, captured Ab, 25°C
T10 construct: also called hAng-2FD-mFc; hAng2-FD-mFc; not shown: mouse Fc (mFc)
T10 sequence: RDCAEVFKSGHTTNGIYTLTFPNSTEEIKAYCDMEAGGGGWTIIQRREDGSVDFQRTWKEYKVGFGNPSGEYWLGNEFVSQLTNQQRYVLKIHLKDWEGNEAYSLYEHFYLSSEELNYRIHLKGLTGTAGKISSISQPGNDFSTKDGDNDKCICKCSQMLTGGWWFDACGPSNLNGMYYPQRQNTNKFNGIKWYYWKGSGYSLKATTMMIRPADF
Procedure: as §2

[10] = molecular target: T8, Dimeric Mouse Ang-2FD conjugated to …; experiment: SPR, captured Ab, 37°C
Procedure: as §2

[11] = molecular target: T9, Dimeric Monkey Ang-2FD conjugated to …; experiment: SPR, captured Ab, 37°C
Procedure: as §2

[12] = molecular target: T10, Dimeric Human Ang-2FD-mFc; experiment: SPR, captured Ab, 37°C
Procedure: as §2

Monomeric hAng-2FD [13] = molecular target: T5, Monomeric hAng-2FD; experiment: SPR, captured Ab, 25°C
Procedure: (§3) Each selected antibody or control construct was captured at a flow rate of 40 μL/min for 1 minute on a goat anti-human IgG polyclonal antibody surface created through direct chemical coupling to a BIACORE™ chip to form a captured antibody surface.

[14] = molecular target: T6, wild-type human Ang-2 (hAng-2-WT); experiment: SPR, captured Ab, 25°C
Procedure: as §3

[15] = molecular target: T11, Full-length wild-type human Ang-1 (hAng-1-WT) (human, UniProt Q15389 20-498, limits assumed); experiment: SPR, captured Ab, 25°C
T11 construct: also called recombinant human Ang-1 (R&D Systems)
T11 sequence (looked up): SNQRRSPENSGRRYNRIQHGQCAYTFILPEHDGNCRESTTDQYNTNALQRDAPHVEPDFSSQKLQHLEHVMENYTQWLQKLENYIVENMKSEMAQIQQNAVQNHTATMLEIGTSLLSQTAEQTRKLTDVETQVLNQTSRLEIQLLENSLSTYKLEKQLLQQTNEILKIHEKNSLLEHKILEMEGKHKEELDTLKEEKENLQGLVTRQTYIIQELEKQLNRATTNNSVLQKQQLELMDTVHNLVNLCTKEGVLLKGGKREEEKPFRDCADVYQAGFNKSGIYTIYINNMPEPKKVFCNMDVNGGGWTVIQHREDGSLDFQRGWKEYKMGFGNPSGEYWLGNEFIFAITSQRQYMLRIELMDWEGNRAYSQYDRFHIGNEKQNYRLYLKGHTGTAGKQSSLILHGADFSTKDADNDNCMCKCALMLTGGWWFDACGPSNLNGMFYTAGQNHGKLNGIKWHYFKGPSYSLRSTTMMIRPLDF
Procedure: as §3

Monomeric hAng-2FD [16] = molecular target: T5, Monomeric hAng-2FD; experiment: SPR, captured Ab, 37°C
Procedure: as §3

[17] = molecular target: T6, wild-type human Ang-2 (hAng-2-WT); experiment: SPR, captured Ab, 37°C
Procedure: as §3

[18] = molecular target: T11, Full-length wild-type human Ang-1 …; experiment: SPR, captured Ab, 37°C
Procedure: as §3

B1: H1H693P (antibody, human IgG1, V domains shown)
VH: EVQLVESGGGLVQPGESLRLSCAASGFTFSSYAMSWVRQGPGKGLEWVSSISGSGGTTYYADSVEGRFTISRDNSKNTLYLHMNSLRAEDTAVYYCAKDFLDYSTYLAFDLWGQGTMVTVSS
VL: DIQMTQSPSSVSASVGDRVTITCRASQGISSWLAWYQQKPGKAPKLLIYAASSLQSGVPSRFSGSGSGTDFTLTISSLQPEDFATYYCQQANSFPRTFGQGTKVEIK
notes: Human IgG1
For B1, the “Percent Blocking of Ang-2FD Binding to Tie-2” value (Human Ang-2FD-hFc) was 73.9%, the “Percent Blocking of Ang-2FD Binding to Tie-2” value (Mouse Ang-2FD-hFc) was 63.6% and the IC50 (Biotin-hBA2) was greater than 5 nM.

B2: H1H744N (antibody, V domains shown)
VH: QVQLVQSGVEVKKPGASVKVSCKTSGYTFSNNGFSWVRQAPGQGLEWLGWISGYNGNTNYAQKFQGRVTMTTDTSTSTAYMELRTLRSDDTAVYYCARDQDYSNFHWLDPWGQGTLVTVAS
VL: DIQMTQSPSSVSASVGDRVIITCRASQGLSSWLAWYQQKPGTAPKLLIHSASSLQTGVPSRFSGSGSGTEFALTINSLQPEDFGTYYCQQANSFPLTFGGGTRVEIK
Binder B2 has a Kd [1] of 0.0172 nM, a T1/2 [1] of 7.37 h and a Kd (Monomeric hAng-2FD [2]) of 1.02 nM. It also gave a T1/2 (Monomeric hAng-2FD [2]) of 0.702 h, a Kd [3] of 0.0308 nM and a T1/2 [3] of 13.9 h. The Kd [4] was 0.114 nM, the T1/2 [4] was 2.12 h and the T1/2 [5] was 1.92 h. The Kd [6] was 0.346 nM, the T1/2 [6] was 2.73 h and the Kd [7] was 0.385 nM. For the same binder, the T1/2 [7] was 0.55 h, the Kd [8] was 0.244 nM and the T1/2 [8] was 0.4 h. For the same binder, the Kd [9] was 0.116 nM, the T1/2 [9] was 0.383 h and the Kd [10] was 0.215 nM. It also gave a T1/2 [10] of 0.433 h, a Kd [11] of 0.32 nM and a T1/2 [11] of 0.183 h. The Kd [12] was 0.105 nM, the T1/2 [12] was 0.3 h and the Kd (Monomeric hAng-2FD [13]) was 0.424 nM. It also gave a T ½ (Monomeric hAng-2FD [13]) of 1.55 h, a Kd [14] of 0.0335 nM and a T ½ [14] of 7.5 h. The Kd [15] was 0.093 nM, the T ½ [15] was 5.05 h and the Kd (Monomeric hAng-2FD [16]) was 1.42 nM. For the same binder, the T ½ (Monomeric hAng-2FD [16]) was 0.35 h, the Kd [17] was 0.347 nM and the T ½ [17] was 0.8 h. The Kd [18] was 0.0312 nM and the T ½ [18] was 3.7 h.
